First the molecules themselves.
B1: Ac-Asp-Eaa-Eaa-Nmg-Glu-leu-[Cys(2Lut)-Thp-Leu-Ile-Cys]-NH2 (peptide)
peptide: Ac-D[Phe(3,4-Cl2)][Phe(3,4-Cl2)][Sar]E[dL]C[Thp]LIC-NH2
modifications: linker 7-11 via Pyridine(2,6-diCH2)
SMILES: CC[C@H](C)[C@@H]1NC(=O)[C@H](CC(C)C)NC(=O)C2(CCOCC2)NC(=O)[C@@H](NC(=O)[C@@H](CC(C)C)NC(=O)[C@H](CCC(=O)O)NC(=O)CN(C)C(=O)[C@H](Cc2ccc(Cl)c(Cl)c2)NC(=O)[C@H](Cc2ccc(Cl)c(Cl)c2)NC(=O)[C@H](CC(=O)O)NC(C)=O)CSCc2cccc(n2)CSC[C@@H](C(N)=O)NC1=O
B2: Ac-Asp-Eaa-Eaa-Oic-Glu-leu-[Cys(2Lut)-Thp-Leu-Ile-Cys]-NH2 (peptide)
peptide: Ac-D[Phe(3,4-Cl2)][Phe(3,4-Cl2)][Oic]E[dL]C[Thp]LIC-NH2
modifications: linker 7-11 via Pyridine(2,6-diCH2)
SMILES: CC[C@H](C)[C@@H]1NC(=O)[C@H](CC(C)C)NC(=O)C2(CCOCC2)NC(=O)[C@@H](NC(=O)[C@@H](CC(C)C)NC(=O)[C@H](CCC(=O)O)NC(=O)[C@@H]2C[C@@H]3CCCC[C@@H]3N2C(=O)[C@H](Cc2ccc(Cl)c(Cl)c2)NC(=O)[C@H](Cc2ccc(Cl)c(Cl)c2)NC(=O)[C@H](CC(=O)O)NC(C)=O)CSCc2cccc(n2)CSC[C@@H](C(N)=O)NC1=O
B3: Ac-Asp-Trp-5Clw-Hyp-Hly-leu-[Cys(2Lut)-Thp-Leu-Ile-Cys]-NH2 (peptide)
peptide: Ac-DW[Trp(5-Cl)][Hyp][hLys][dL]C[Thp]LIC-NH2
modifications: linker 7-11 via Pyridine(2,6-diCH2)
SMILES: CC[C@H](C)[C@@H]1NC(=O)[C@H](CC(C)C)NC(=O)C2(CCOCC2)NC(=O)[C@@H](NC(=O)[C@@H](CC(C)C)NC(=O)[C@H](CCCCCN)NC(=O)[C@@H]2C[C@@H](O)CN2C(=O)[C@H](Cc2c[nH]c3ccc(Cl)cc23)NC(=O)[C@H](Cc2c[nH]c3ccccc23)NC(=O)[C@H](CC(=O)O)NC(C)=O)CSCc2cccc(n2)CSC[C@@H](C(N)=O)NC1=O
B4: Ac-Asp-Trp-5Clw-Hyp-His-leu-[Cys(2Lut)-Thp-Leu-Ile-Cys]-NH2 (peptide)
peptide: Ac-DW[Trp(5-Cl)][Hyp]H[dL]C[Thp]LIC-NH2
modifications: linker 7-11 via Pyridine(2,6-diCH2)
SMILES: CC[C@H](C)[C@@H]1NC(=O)[C@H](CC(C)C)NC(=O)C2(CCOCC2)NC(=O)[C@@H](NC(=O)[C@@H](CC(C)C)NC(=O)[C@H](Cc2c[nH]cn2)NC(=O)[C@@H]2C[C@@H](O)CN2C(=O)[C@H](Cc2c[nH]c3ccc(Cl)cc23)NC(=O)[C@H](Cc2c[nH]c3ccccc23)NC(=O)[C@H](CC(=O)O)NC(C)=O)CSCc2cccc(n2)CSC[C@@H](C(N)=O)NC1=O
B5: Ac-Asp-Trp-5Clw-Hyp-Arg-leu-[Cys(2Lut)-Thp-Leu-Ile-Cys]-NH2 (peptide)
peptide: Ac-DW[Trp(5-Cl)][Hyp]R[dL]C[Thp]LIC-NH2
modifications: linker 7-11 via Pyridine(2,6-diCH2)
B6: Ac-Asp-Trp-5Clw-Hyp-Lys-leu-[Cys(2Lut)-Thp-Leu-Ile-Cys]-NH2 (peptide)
peptide: Ac-DW[Trp(5-Cl)][Hyp]K[dL]C[Thp]LIC-NH2
modifications: linker 7-11 via Pyridine(2,6-diCH2)
SMILES: CC[C@H](C)[C@@H]1NC(=O)[C@H](CC(C)C)NC(=O)C2(CCOCC2)NC(=O)[C@@H](NC(=O)[C@@H](CC(C)C)NC(=O)[C@H](CCCCN)NC(=O)[C@@H]2C[C@@H](O)CN2C(=O)[C@H](Cc2c[nH]c3ccc(Cl)cc23)NC(=O)[C@H](Cc2c[nH]c3ccccc23)NC(=O)[C@H](CC(=O)O)NC(C)=O)CSCc2cccc(n2)CSC[C@@H](C(N)=O)NC1=O
B7: Ac-Asp-Ocf-5Clw-Hyp-Glu-leu-[Cys(2Lut)-Thp-Leu-Ile-Cys]-lys(DOTA)-NH2 (peptide)
peptide: Ac-D[Phe(2-Cl)][Trp(5-Cl)][Hyp]E[dL]C[Thp]LIC
modifications: linker 7-11 via Pyridine(2,6-diCH2); not fully specified (C-terminus)
B8: Ac-Asp-Trp-5Clw-Hyp-Glu-leu-[Cys-Thp-Leu-Ile-Cys]-NH2 (peptide)
peptide: Ac-DW[Trp(5-Cl)][Hyp]E[dL]C[Thp]LIC-NH2
modifications: disulfide 7-11

*1 amine or outer side, *2 acyl side, *3 side chain or, on linkers, in order; H or OH if unused. Bridges are numbered along the chain shown (N, C = ends). Where no end group is shown, it is not given here. [ ]: non-standard residue; d: D form. Trp(5-Cl) = N[C@@H](Cc1c[nH]c2ccc(Cl)cc12)C(=O)O; Phe(3,4-Cl2) = N[C@@H](Cc1ccc(Cl)c(Cl)c1)C(=O)O; Pyridine(2,6-diCH2) = c1cc(C[*:1])nc(C[*:2])c1; Oic = O=C(O)[C@@H]1C[C@@H]2CCCC[C@@H]2N1; Phe(2-Cl) = N[C@@H](Cc1ccccc1Cl)C(=O)O; Hyp = O=C(O)[C@@H]1C[C@@H](O)CN1; hLys = NCCCCC[C@H](N)C(=O)O; Thp = NC1(C(=O)O)CCOCC1; Sar = CNCC(=O)O

biotinylated extracellular domain of the human GIP receptor (bioGIPR) (human), sequence (P48546 24-138 limits assumed): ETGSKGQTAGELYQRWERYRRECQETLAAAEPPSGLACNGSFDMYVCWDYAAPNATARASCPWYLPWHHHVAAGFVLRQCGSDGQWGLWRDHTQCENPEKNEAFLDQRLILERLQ

The target of the first test is human Gastric Inhibitory Peptide Receptor (GIPR) (human) (UniProt P48546). Briefly: FACS competition vs biotinylated GIP-057 on CHO-K1-hGIPR cells; category D: pIC50 <=6.0.
human Gastric Inhibitory Peptide Receptor (GIPR) (human), sequence (P48546 22-466 limits assumed): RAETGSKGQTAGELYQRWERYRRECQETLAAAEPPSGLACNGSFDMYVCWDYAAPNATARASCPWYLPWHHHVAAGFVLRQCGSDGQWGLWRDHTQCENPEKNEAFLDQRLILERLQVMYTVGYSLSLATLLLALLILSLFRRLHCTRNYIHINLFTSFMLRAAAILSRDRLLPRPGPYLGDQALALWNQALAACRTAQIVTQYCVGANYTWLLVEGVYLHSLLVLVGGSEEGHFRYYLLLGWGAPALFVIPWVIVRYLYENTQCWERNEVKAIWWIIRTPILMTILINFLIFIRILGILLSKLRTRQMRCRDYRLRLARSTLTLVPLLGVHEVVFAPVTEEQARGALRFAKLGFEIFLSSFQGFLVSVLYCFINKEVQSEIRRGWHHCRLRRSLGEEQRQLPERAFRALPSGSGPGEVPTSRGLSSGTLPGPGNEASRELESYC
In turn, B1 showed a pIC50 of less than 6 pic50.
The same measure, in the same setting: the value for B2 was less than 6 pic50.

The next test shares this target. The test is described as follows: FACS competition vs biotinylated GIP-057 on CHO-K1-hGIPR cells; category A: pIC50 >8.0.
B3 yielded a pIC50 of more than 8 pic50.
Same read-out and setting: the value for B4 was more than 8 pic50; that for B5 was more than 8 pic50.
In the case of B6, the pIC50 was more than 8 pic50.

The target is the same in another test. The test is described as follows: FACS competition vs biotinylated GIP-057 on CHO-K1-hGIPR cells; category C: pIC50 6.1-7.0.
“H-Met-Tyr-Asp-Trp-Trp-Pro-Glu-Leu-[Cys(2MeBn)-Ala-Leu-Ile-Cys]-NH2 (peptide)” came in with a pIC50 of 6.1 to 7 pic50.
Still for that read-out and setting: the value for B7 was 6.1 to 7 pic50; that for B8 was 6.1 to 7 pic50.

The next test concerns the target biotinylated extracellular domain of the human GIP receptor (bioGIPR) (human) (UniProt P48546). The test is described as follows: SPR single cycle kinetics, bioGIPR captured on chip; category B: pKD 8.1-9.0.
The molecule B3 yielded a pKD of 8.1 to 9 pkd.
On the same count and under the same terms, the value for B4 was 8.1 to 9 pkd; that for B5 was 8.1 to 9 pkd; that for B6 was 8.1 to 9 pkd.

For the next test the target is unchanged. Briefly: SPR single cycle kinetics, bioGIPR captured on chip; category A: t1/2 >15 min.
B3 had a t1/2 of more than 15 min.
For the molecule B4, the t1/2 is more than 15 min.
On the same count and under the same terms, the value for B5 was more than 15 min; that for B6 was more than 15 min.
